Measurements from US11254745.

Assays:
[1] = molecular target: extracellular domain of hCD4 fused with human Fc tag (hCD4-hFc) (human) (UniProt P01730); experiment: ELISA on human CD4, OD450; fitted EC50 of the control in the table under the graph (unit from the graph's axis)
[2] = molecular target: extracellular domain of hCD4 fused with human Fc tag (hCD4-hFc) (human) (UniProt P01730); experiment: ELISA on plate-coated CD4-hFc, OD450; fitted EC50 of the negative control in the table under the graph (unit from the graph's axis)

## hIgG1 (antibody)
[1]
  EC50: 0.78 µg/mL

## mIgG1 (antibody)
[2]
  EC50: 0.542 µg/mL

## Isotype IgG1 (antibody)
[1]
  EC50: 4.48 µg/mL
